Test [1] has as its target T1, human FcγRIIb extracellular domain with C-terminal His-tag (human, UniProt P31994 43-217).
T1 construct: also called human FcgRIIb
T1 sequence: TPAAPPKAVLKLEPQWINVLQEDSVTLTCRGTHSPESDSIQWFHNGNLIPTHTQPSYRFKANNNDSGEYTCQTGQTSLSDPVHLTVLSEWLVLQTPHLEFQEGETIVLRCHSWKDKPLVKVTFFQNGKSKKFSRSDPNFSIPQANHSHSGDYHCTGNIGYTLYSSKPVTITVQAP
Briefly: SPR, KD(SG1)/KD(variant).

In test [2] the target is T2, human FcγRIIIaV extracellular domain with C-terminal His-tag (human, UniProt P08637 17-208).
T2 construct: also called human FcgRIIIaV
Briefly: SPR, KD(SG1)/KD(variant).
T2 sequence (P08637 17-208 F176V): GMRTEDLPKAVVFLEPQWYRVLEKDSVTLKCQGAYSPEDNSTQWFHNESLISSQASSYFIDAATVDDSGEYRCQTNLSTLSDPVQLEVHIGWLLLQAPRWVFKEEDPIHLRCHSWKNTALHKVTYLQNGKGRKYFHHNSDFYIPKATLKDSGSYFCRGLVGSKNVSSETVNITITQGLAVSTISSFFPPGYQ

Test [3] deals with T3, cynomolgus monkey FcγRIIb extracellular domain with C-terminal His-tag (cynomolgus monkey).
T3 construct: also called cyno FcgRIIb; cynoFcγRIIb
T3 chain: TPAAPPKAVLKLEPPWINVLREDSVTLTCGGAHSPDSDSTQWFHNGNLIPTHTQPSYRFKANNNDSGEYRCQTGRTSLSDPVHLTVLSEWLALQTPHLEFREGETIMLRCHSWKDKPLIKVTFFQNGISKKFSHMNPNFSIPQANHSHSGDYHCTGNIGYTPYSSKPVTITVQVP
Briefly: SPR (Biacore), KD of SG1 divided by KD of variant. Background: In SPR one partner is held on a chip, and binding of the other changes the refractive index at the surface.

For test [4], the target named is T4, cynomolgus monkey FcγRIIIaS extracellular domain with C-terminal His-tag (cynomolgus monkey, UniProt Q8SPW2 21-206 at identity 1.00)).
T4 construct: also called cyno FcgRIIIaS; cynoFcγRIIIaS
T4 chain: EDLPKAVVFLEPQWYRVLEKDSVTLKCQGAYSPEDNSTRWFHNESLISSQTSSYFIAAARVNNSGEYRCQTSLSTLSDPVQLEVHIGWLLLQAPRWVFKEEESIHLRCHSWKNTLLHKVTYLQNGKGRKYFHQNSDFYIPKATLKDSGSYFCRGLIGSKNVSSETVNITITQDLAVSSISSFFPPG
Briefly: SPR (Biacore), KD of SG1 divided by KD of variant.

Test [5] deals with T5, human FcγRIIaR extracellular domain with C-terminal His-tag (human, UniProt P12318 34-217).
T5 construct: also called human FcgRIIaR; FcγRIIa (type R)
T5 chain: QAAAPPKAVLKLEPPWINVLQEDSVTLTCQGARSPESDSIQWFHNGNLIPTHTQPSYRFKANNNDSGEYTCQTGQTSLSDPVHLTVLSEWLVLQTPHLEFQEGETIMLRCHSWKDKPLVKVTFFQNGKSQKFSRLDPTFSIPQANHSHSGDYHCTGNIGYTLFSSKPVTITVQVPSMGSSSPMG
Briefly: SPR (Biacore), KD of SG1 divided by KD of variant.

For test [6], the target named is T6, human FcγRIIIaV extracellular domain with C-terminal His-tag (human, UniProt P08637 17-208).
T6 construct: also called human FcgRIIIaV
Briefly: SPR (Biacore), KD of SG1 divided by KD of variant.
T6 sequence (P08637 17-208 F176V): as the sequence (P08637 17-208 F176V) above

Test [7] concerns the target T7, cynomolgus monkey FcγRIIa1 extracellular domain with C-terminal His-tag (cynomolgus monkey).
T7 construct: also called cyno FcgRIIa1; cynoFcγRIIa1
T7 chain: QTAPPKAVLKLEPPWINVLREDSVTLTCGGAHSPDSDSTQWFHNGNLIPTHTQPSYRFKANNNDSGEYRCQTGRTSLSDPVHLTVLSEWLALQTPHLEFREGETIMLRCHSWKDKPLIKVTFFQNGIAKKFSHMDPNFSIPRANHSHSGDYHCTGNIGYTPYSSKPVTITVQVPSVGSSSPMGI
Briefly: SPR (Biacore), KD of SG1 divided by KD of variant.

Test [8] addresses T8, human FcγRIIb extracellular domain with C-terminal His-tag (human, UniProt P31994 43-217).
T8 construct: also called human FcgRIIb
T8 sequence: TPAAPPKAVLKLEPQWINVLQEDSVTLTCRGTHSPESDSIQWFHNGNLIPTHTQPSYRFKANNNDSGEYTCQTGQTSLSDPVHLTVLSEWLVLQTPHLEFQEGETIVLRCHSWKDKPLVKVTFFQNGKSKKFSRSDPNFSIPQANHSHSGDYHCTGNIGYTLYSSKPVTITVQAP
Briefly: SPR (Biacore), KD of SG1 divided by KD of variant.

Test [9] has as its target T7, cynomolgus monkey FcγRIIa1 …. Briefly: SPR (Biacore), antibody captured, FcgR as analyte.
Test [10] addresses T9, human FcγRIIaH extracellular domain with C-terminal His-tag (human, UniProt P12318 34-217).
T9 construct: also called human FcgRIIaH; FcγRIIa (type H)
T9 sequence: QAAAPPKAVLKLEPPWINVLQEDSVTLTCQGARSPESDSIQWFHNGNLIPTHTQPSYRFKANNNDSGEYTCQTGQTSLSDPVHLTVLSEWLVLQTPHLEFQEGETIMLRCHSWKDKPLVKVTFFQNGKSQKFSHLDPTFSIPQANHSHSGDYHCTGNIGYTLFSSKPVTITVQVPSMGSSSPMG
Briefly: SPR (Biacore), antibody captured, FcgR as analyte.

The target in test [11] is T5, human FcγRIIaR extracellular domain …. Briefly: SPR (Biacore), antibody captured, FcgR as analyte.
For test [12], the target named is T10, cynomolgus monkey FcγRIIa3 extracellular domain with C-terminal His-tag (cynomolgus monkey).
T10 construct: also called cyno FcgRIIa3; cynoFcγRIIa3
T10 chain: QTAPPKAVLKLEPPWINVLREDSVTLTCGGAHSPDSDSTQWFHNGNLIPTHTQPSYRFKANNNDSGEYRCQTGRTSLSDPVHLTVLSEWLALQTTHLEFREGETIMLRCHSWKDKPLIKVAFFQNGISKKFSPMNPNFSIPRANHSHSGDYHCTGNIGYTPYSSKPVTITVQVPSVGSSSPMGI
Briefly: SPR (Biacore), KD of SG1 divided by KD of variant.

B1: M103205H795-MY531/M103202L889-SK1 (antibody, human IgG1, kappa, name in EU numbering)
heavy: QVTLKESGPVLVKPTETLTLTCTVSGIDLSHDDISWVRQAPGKGLEWVGIISYAGSTYYASWAKGRLTISKDTSKNQVVLTMTNMDPVDTATYYCARGVPAYSHGGDLWGQGTLVTVSSASTKGPSVFPLAPSSKSTSGGTAALGCLVKDYFPEPVTVSWNSGALTSGVHTFPAVLQSSGLYSLSSVVTVPSSSLGTQTYICNVNHKPSNTKVDKKVEPKSCDKTHTCPPCPAPEWLTGPSVFLFPPKPKDTLMISRTPEVTCVVVDVSDEDPEVKFNWYVDGVEVHNAKTKPREEQYNSTYRVVSVLTVLHQDWLNGKEYKCKVSNTALPKPIEKTISKAKGQPREPQVYTLPPSREEMTKNQVSLTCLVKGFYPSDIAVEWESNGQPENNYKTTPPVLDSDGSFFLYSKLTVDKSRWQQGNVFSCSVMHEALHNHYTQKSLSLSP
light: DIVMTQSPATLSLSPGERATLSCTSSQSVYHANWLSWFQQKPGQPPKLLIYWASTLAYGVPSRFSGSGSGTDFTLTISSLQPEDAATYYCAGGYGGGRYAFGQGTKVEIKRTVAAPSVFIFPPSDEQLKSGTASVVCLLNNFYPREAKVQWKVDNALQSGNSQESVTEQDSKDSTYSLSSTLTLSKADYEKHKVYACEVTHQGLSSPVTKSFNRGEC
notes: copies: 2 + 2
Turning to B1, the “KD fold (SG1 = 1)” value in test [1] is 3.1 fold; in test [2], 0.28 fold.

B2: M103205H795-MY514 / M103202L889-SK1 (antibody)
heavy: QVTLKESGPVLVKPTETLTLTCTVSGIDLSHDDISWVRQAPGKGLEWVGIISYAGSTYYASWAKGRLTISKDTSKNQVVLTMTNMDPVDTATYYCARGVPAYSHGGDLWGQGTLVTVSSASTKGPSVFPLAPSSKSTSGGTAALGCLVKDYFPEPVTVSWNSGALTSGVHTFPAVLQSSGLYSLSSVVTVPSSSLGTQTYICNVNHKPSNTKVDKKVEPKSCDKTHTCPPCPAPELLTGPVVFLFPPKPKDTLMISRTPEVTCVVVDVSDEDPEVKFNWYVDGVEVHNAKTKPREEQYNLTYRVVSVLTVLHQDWLNGKEYKCKVSNKALPKPIEKTISKAKGQPREPQVYTLPPSREEMTKNQVSLTCLVKGFYPSDIAVEWESNGQPENNYKTTPPVLDSDGSFFLYSKLTVDKSRWQQGNVFSCSVMHEALHNHYTQKSLSLSP
light: DIVMTQSPATLSLSPGERATLSCTSSQSVYHANWLSWFQQKPGQPPKLLIYWASTLAYGVPSRFSGSGSGTDFTLTISSLQPEDAATYYCAGGYGGGRYAFGQGTKVEIKRTVAAPSVFIFPPSDEQLKSGTASVVCLLNNFYPREAKVQWKVDNALQSGNSQESVTEQDSKDSTYSLSSTLTLSKADYEKHKVYACEVTHQGLSSPVTKSFNRGEC
notes: 'S258L' copied as printed, probably S298L
B2: the “KD fold (SG1 = 1)” value in [3] was determined as 2.6 fold; in [4] it was 0.05 fold; in test [5], 6.9 fold; in [6], 0.09 fold.

B3: M103205H795-MY530 / M103202L889-SK1 (antibody, human IgG1, kappa, name in EU numbering)
heavy: QVTLKESGPVLVKPTETLTLTCTVSGIDLSHDDISWVRQAPGKGLEWVGIISYAGSTYYASWAKGRLTISKDTSKNQVVLTMTNMDPVDTATYYCARGVPAYSHGGDLWGQGTLVTVSSASTKGPSVFPLAPSSKSTSGGTAALGCLVKDYFPEPVTVSWNSGALTSGVHTFPAVLQSSGLYSLSSVVTVPSSSLGTQTYICNVNHKPSNTKVDKKVEPKSCDKTHTCPPCPAPELLTGPSVFLFPPKPKDTLMISRTPEVTCVVVDVSDEDPEVKFNWYVDGVEVHNAKTKPREEQYNSTYRVVSVLTVLHQDWLNGKEYKCKVSNTALPKPIEKTISKAKGQPREPQVYTLPPSREEMTKNQVSLTCLVKGFYPSDIAVEWESNGQPENNYKTTPPVLDSDGSFFLYSKLTVDKSRWQQGNVFSCSVMHEALHNHYTQKSLSLSP
light: DIVMTQSPATLSLSPGERATLSCTSSQSVYHANWLSWFQQKPGQPPKLLIYWASTLAYGVPSRFSGSGSGTDFTLTISSLQPEDAATYYCAGGYGGGRYAFGQGTKVEIKRTVAAPSVFIFPPSDEQLKSGTASVVCLLNNFYPREAKVQWKVDNALQSGNSQESVTEQDSKDSTYSLSSTLTLSKADYEKHKVYACEVTHQGLSSPVTKSFNRGEC
By Kd is commonly meant the constant that tells how readily two partners part at equilibrium. In the case of B3, the “KD fold (SG1 = 1)” value in test [7] is 2.5 fold; in test [8] it was 2.9 fold. This molecule also returned a Kd in [9] of 1300 nM.

B4: M103205H795-MY528 / M103202L889-SK1 (antibody, human IgG1, kappa, name in EU numbering)
heavy: QVTLKESGPVLVKPTETLTLTCTVSGIDLSHDDISWVRQAPGKGLEWVGIISYAGSTYYASWAKGRLTISKDTSKNQVVLTMTNMDPVDTATYYCARGVPAYSHGGDLWGQGTLVTVSSASTKGPSVFPLAPSSKSTSGGTAALGCLVKDYFPEPVTVSWNSGALTSGVHTFPAVLQSSGLYSLSSVVTVPSSSLGTQTYICNVNHKPSNTKVDKKVEPKSCDKTHTCPPCPAPEWLTGPSVFLFPPKPKDTLMISRTPEVTCVVVDVSDEDPEVKFNWYVDGVEVHNAKTKPREEQYNSTYRVVSVLTVLHQDWLNGKEYKCKVSNKALPKPIEKTISKAKGQPREPQVYTLPPSREEMTKNQVSLTCLVKGFYPSDIAVEWESNGQPENNYKTTPPVLDSDGSFFLYSKLTVDKSRWQQGNVFSCSVMHEALHNHYTQKSLSLSP
light: DIVMTQSPATLSLSPGERATLSCTSSQSVYHANWLSWFQQKPGQPPKLLIYWASTLAYGVPSRFSGSGSGTDFTLTISSLQPEDAATYYCAGGYGGGRYAFGQGTKVEIKRTVAAPSVFIFPPSDEQLKSGTASVVCLLNNFYPREAKVQWKVDNALQSGNSQESVTEQDSKDSTYSLSSTLTLSKADYEKHKVYACEVTHQGLSSPVTKSFNRGEC
On to B4, for which the “KD fold (SG1 = 1)” value in test [4] came out at 0.18 fold. The dissociation constant Kd came to 350 nM in [10] and 560 nM in test [11].

B5: M103205H795-MY520 / M103202L889-SK1 (antibody, human IgG1, kappa, name in EU numbering)
heavy: QVTLKESGPVLVKPTETLTLTCTVSGIDLSHDDISWVRQAPGKGLEWVGIISYAGSTYYASWAKGRLTISKDTSKNQVVLTMTNMDPVDTATYYCARGVPAYSHGGDLWGQGTLVTVSSASTKGPSVFPLAPSSKSTSGGTAALGCLVKDYFPEPVTVSWNSGALTSGVHTFPAVLQSSGLYSLSSVVTVPSSSLGTQTYICNVNHKPSNTKVDKKVEPKSCDKTHTCPPCPADELLTGPVVFLFPPKPKDTLMISRTPEVTCVVVDVSDEDPEVKFNWYVDGVEVHNAKTKPREELYNSTYRVVSVLTVLHQDWLNGKEYKCKVSNKALPKPIEKTISKAKGQPREPQVYTLPPSREEMTKNQVSLTCLVKGFYPSDIAVEWESNGQPENNYKTTPPVLDSDGSFFLYSKLTVDKSRWQQGNVFSCSVMHEALHNHYTQKSLSLSP
light: DIVMTQSPATLSLSPGERATLSCTSSQSVYHANWLSWFQQKPGQPPKLLIYWASTLAYGVPSRFSGSGSGTDFTLTISSLQPEDAATYYCAGGYGGGRYAFGQGTKVEIKRTVAAPSVFIFPPSDEQLKSGTASVVCLLNNFYPREAKVQWKVDNALQSGNSQESVTEQDSKDSTYSLSSTLTLSKADYEKHKVYACEVTHQGLSSPVTKSFNRGEC
For the molecule B5, the “KD fold (SG1 = 1)” value was determined as 8.1 fold in [12], 3.2 fold in test [5], 3.3 fold in [8] and 0.23 fold in [6].

The record behind these values is patent US20250076311A1 (Chugai, published 2025).
